Test results from US12072338B2, “Pharmaceutical peptides for the treatment of inflammatory diseases” (PROTAGONISTS LTD., priority 2007, dated 2024).

Legend:
Mig = target: T1, Mig (Homo sapiens, UniProt Q07325); assay: Micro-array analysis of chemokine binding peptides: Mig
T1 construct: purchased 300-26
T1 sequence (Q07325 23-125): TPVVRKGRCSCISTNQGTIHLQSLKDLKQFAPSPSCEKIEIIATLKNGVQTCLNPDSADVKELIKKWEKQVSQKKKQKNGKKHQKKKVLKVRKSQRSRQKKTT
Procedure, shortened: (§1)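 Phage-presented peptides (10^7 pfu/μl in wash buffer) were incubated 1 h at room temperature on blocked slides carrying chemokine spots at 25 or 50 μg/ml. After anti-M13 and Cy3-labelled secondary antibody staining, slides were laser-scanned and spot fluorescence quantified as relative binding.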

MCP-1 = target: T2, MCP-1 (Homo sapiens, UniProt P13500); assay: Micro-array analysis of chemokine binding peptides: MCP-1; settings: for binding to MCP-1 with relatively high affinity (Relative Fluorescence Units): limit = start of the upper 75% of that peptide's response range
T2 construct: purchased 300-04
T2 sequence (P13500 24-99): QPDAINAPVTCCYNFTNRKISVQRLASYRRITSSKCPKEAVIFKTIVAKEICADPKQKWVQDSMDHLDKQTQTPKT
Procedure, shortened: as §1

Eotaxin = target: T3, Eotaxin (Homo sapiens, UniProt P51671); assay: Micro-array analysis of chemokine binding peptides: Eotaxin
T3 construct: purchased 300-21
Procedure, shortened: as §1

Eotaxin 2 = target: T4, Eotaxin 2 (Homo sapiens, UniProt O00175); assay: Micro-array analysis of chemokine binding peptides: Eotaxin 2
T4 construct: purchased 300-33
T4 sequence (O00175 27-119): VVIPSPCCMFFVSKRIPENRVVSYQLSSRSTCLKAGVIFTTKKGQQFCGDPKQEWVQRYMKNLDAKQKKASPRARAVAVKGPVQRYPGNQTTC
Experimental: (§2) (1) Printing: Chemokine (CK) solution (in water) was serially diluted with Print Reagent (GenTel BioSurfaces USA) to final concentrations of 50 μg and 25 μg/ml. BSA/BSA-Biotin control solutions (in water) were diluted with Print Reagent to 100 μg/ml. Amplified stock of M13 phage control (M13KEgIII Cloning Vector, New England Biolabs, Cat.No.E8101S) was stored in Tris Buffered Saline (TBS; pH7.5, 4° C.) and diluted with Print Reagent to the working titre (10^8 pfu/μl). An automated spotting robot (16 pin print tool, 0.4 mm head; BioRobotics, UK) was used to print the CK/BSA control/M13 control, 5 repeats per sample (CK 25 μg/ml and 50 μg/ml; BSA 100 μg/ml; M13 20 μl), on PATH Protein Microarray Slides (GenTel, Prod.No. 2-1005/-1025) at […], and 50-70% relative humidity. Printed micro-array slides were stored at Room Temperature (RT) or 4° C. for at least 24 h before use.
(§3) (2) Blocking: Block Buffer (500 μl/partition; PATHblock, GenTel, Prod.No. 2-1014) was applied to the slide for 1 hour at room temp (RT). After removal of Block Buffer, the slide was air dried for 25 minutes;
(§4) (3) Phage Presented Peptide Binding: Amplified recombinant phage stock was stored in TBS and diluted with Wash Buffer to working titer (10^7 pfu/μl). Recombinant phage suspension (300 μl) was applied per partition and incubated at RT for 1 hour with gentle agitation.
(§5) (4) First Washing: The slides were washed twice with Wash Buffer 300 μl/partition).
(5) Primary Antibody (Ab) Labeling: The slides were incubated with the Primary Ab (1 mg/ml diluted ×2500 (Wash Reagent), 300 μl; Mouse Anti-M13 monoclonal Ab; Amersham Biosciences, UK; Product Code 27-9420-01) for 45 minutes at RT.
(6) Second Washing: The slides were washed twice with Wash Buffer (300 μl/partition).
(7) Secondary Ab Labeling: The slides were incubated with Secondary Ab (1.5 mg/ml diluted ×5000 (Wash Reagent), 300 μl; Cy3-conjugated AffiniPure Goat Anti-Mouse IgG; Jackson ImmunoReserch Labs, USA; Product Code 115-165-062).
(8) Third Washing: The slides were washed twice with Wash Buffer (300 μl/partition).
(9) Rinse: the slides were rinsed twice with Rinse Buffer (PATHrinse, GenTel, Prod.No. 2-1018) then dried well.
(10) Scanning: The peptide-bound, labeled slide was scanned (Laser Intensity 80%, Gain 80%, Resolution 10 μm) with a ScanArray Life Scanner (Packard BioChip Technologies, USA).
(§6) (11) Analysis: Quantitative analysis of micro-array was performed by the SpotReader program of Niles Scientific (USA) and presented as Relative Fluorescence (RF) as a function of CK concentration. Micro-array readout (Cy3 fluorescence) was quantified to determine the relative binding affinities of a CBP for the CKs and by inference, the specificity of the CBP for binding to a CK.

MDC 69 = target: T5, MDC 69 (Homo sapiens, UniProt O00626); assay: Micro-array analysis of chemokine binding peptides: MDC 69
T5 construct: MDC(69aa), (CCL22 cat.no.300-36A); purchased 300-36A
T5 sequence (O00626 25-93): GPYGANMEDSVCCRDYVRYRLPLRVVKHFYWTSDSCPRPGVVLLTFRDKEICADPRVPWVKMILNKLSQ
Experimental: as §2, §3, §4, §5
(5) Primary Antibody (Ab) Labeling: The slides were incubated with the Primary Ab (1 mg/ml diluted ×2500 (Wash Reagent), 300 μl; Mouse Anti-M13 monoclonal Ab; Amersham Biosciences, UK; Product Code 27-9420-01) for 45 minutes at RT. […]
as §6

[1] = system: Adjuvant-Induced Arthritis (AIA) rats; assay: Adjuvant Induced Arthritis (AIA) rat model, Clinical Score; assay type: in vivo; settings: for most efficacious of the three doses: 2.5 μg, 25 μg and 250 μg IP on days 7-18; for day of maximal anti-inflammatory effect / maximal anti-inflammatory effect: 25 μg IP on days 7-18
Experimental: Peptides were tested in a rat model of AIA for their anti-inflammatory effects.
Disease Induction: AIA was induced in female Lewis rats aged 7-8 weeks by injection of heat-killed Mycobacerioum tuberculosis (Mt strain H37Ra, Difco Laboratories, USA) dispersed in incomplete Freund's adjuvant to a final concentration of 10 mg/ml (100 μl) at the base of the tail on day 0.
Measurement: Clinical Score (CS, 0-4) for each limb based on (a) joint inflammation, (b) redness, (c) deformity.
Efficacy Protocol 1 (5 rats per group). Peptide/control compound was injected intra-peritoneally (IP, 200 μl) on days 7-11 and 14-18.
Rats were sacrificed (CO2 inhalation) on day 43.
Efficacy Protocol 2 (8 rats per group). Group 1: peptide/PBS was injected intra-peritoneally (IP, 200 μl) on days 7-18; Group 2: PBS was injected IP on days 7-18; Group 3: Dexamethasone (Dexa) was injected IP on days 11 (Clinical Score (CS)1) and 13. Rats were sacrificed on day 43.
Combination Efficacy Protocol 1 (8 rats per group). Group 1: peptide injected IP on days 7-18; Group 2: PBS injected IP on days 7-18; Group 3: Dexa injected IP on day 11 (CS 1) and day 13; Group 4: Dexa injected IP on days 11 and 13 then peptide injected on days 14-22; Group 5: Dexa injected IP on days 11 and 13 then PBS injected on days 14-22.
(§7) Combination Efficacy Protocol 2 (8 rats per group). Group 1: peptide injected IP on days 7-18; Group 2: PBS injected IP on days 7-18; Group 3: Dexa injected IP on day 11 (CS 1) and day 13 then PBS on days 14-22; Group 4: PBS injected IP on days 7-10,12,14; Dexa injected on days 11, 13. Peptide injected on days 15-19.
as §7, with “Protocol 3” for “Protocol 2”, “4: peptide” for “4: PBS”
Control Reagents for Adjuvant Induced Arthritis: Anti-Inflammatory Control: Dexamethasone Sodium Phosphate (Dexacort Forte, Teva) was dissolved in Phosphate Buffer Saline (PBS, GIBCO) to a final concentration of 1 mg/ml and injected in 200 μl (200 μg).
Negative Control: Phosphate Buffer Saline (PBS).

[2] = limit = start of the upper 75% of that peptide's response range

binding to Mig with relatively high affinity (Relative Fluorescence Units) (Mig; [2])	binding to MCP-1 with relatively high affinity (Relative Fluorescence Units) (MCP-1)	binding to Eotaxin with relatively high affinity (Relative Fluorescence Units) (Eotaxin; [2])	binding to Eotaxin 2 with relatively high affinity (Relative Fluorescence Units) (Eotaxin 2; [2])	binding to MDC 69, stated in words (MDC 69)	binding to Mig, stated in words (Mig)	binding to MCP-1, stated in words (MCP-1)	binding to Eotaxin, stated in words (Eotaxin)	binding to Eotaxin 2, stated in words (Eotaxin 2)	Sequence	most efficacious of the three doses [1] [µg]	day of maximal anti-inflammatory effect [1] [days]	maximal anti-inflammatory effect [1] [%]
> 15,000 RFU	> 15,000 RFU	> 15,000 RFU	> 15,000 RFU	bound	–	–	–	–	DYDYGAPC [Ph-p30]	–	–	–
–	> 15,000 RFU	–	–	bound	bound	bound specifically and differentially	bound	bound	WVFGAAMCK [Ph-p8.8]	25	18	20
–	–	–	–	–	–	–	–	–	WVFGNAMCK [P8]	25	~17	17
